Measurements reported in the supplement of paper PMC5998384.

Columns and labels:
HeLa Kyoto [1] = assay: solubility change mitosis vs G1/S (difference of NP-40 vs SDS log2 ratios) (log2 ratio difference); higher = more soluble in mitosis
HeLa Kyoto [2] = assay: solubility in G1/S (NP-40 vs SDS abundance) (log2 ratio); higher = more soluble; details: cell cycle stage: G1/S
HeLa Kyoto [3] = assay: thermal stability score vs G1/S (z-score of summed log2 fold changes over temperatures); higher = more thermally stable than in G1/S
[4] = cell cycle stage: early G1 (4.5 h after nocodazole release)
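Wherever solubility change mitosis vs G1/S (difference of NP-40 vs SDS log2 ratios) is given: synchronized HeLa Kyoto cells (double thymidine block for G1/S, nocodazole release for mitosis), protein amounts in NP-40 versus SDS lysates quantified by mass spectrometry, three biological replicates.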
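Wherever solubility in G1/S (NP-40 vs SDS abundance) is given: HeLa Kyoto cells arrested at G1/S by double thymidine block, proteins quantified by TMT10plex mass spectrometry in mild NP-40 versus SDS extracts, three biological replicates.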
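Wherever thermal stability score vs G1/S (z-score of summed log2 fold changes over temperatures) is given: synchronized HeLa Kyoto cells, proteins quantified by TMT10plex mass spectrometry, three biological replicates, mitosis taken 0.5 h after nocodazole release, G1/S directly after double thymidine block.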

Row | Substance | solubility change mitosis (log2) (HeLa Kyoto [1]) | solubility in G1/S (log2) (HeLa Kyoto [2]) | thermal stability score (HeLa Kyoto [3]; [4]) | thermal stability score (HeLa Kyoto [3]; cell cycle stage: mitosis)
1 | MESSSSDYYNKDNEEESLLANVASLRHELKITEWSLQSLGEELSSVSPSENSDYAPNPSRSEKLILDVQPSHPGLLNYSPYENVCKISGSSTDFQKKPRDKMFSSSAPVDQEIKSLREKLNKLRQQNACLVTQNHSLMTKFESIHFELTQSRAKVSMLESAQQQAASVPILEEQIINLEAEVSAQDKVLREAENKLEQSQKMVIEKEQSLQESKEECIKLKVDLLEQTKQGKRAERQRNEALYNAEELSKAFQQYKKKVAEKLEKVQAEEEILERNLTNCEKENKRLQERCGLYKSELEILKEKLRQLKEENNNGKEKLRIMAVKNSEVMAQLTESRQSILKLESELENKDEILRDKFSLMNENRELKVRVAAQNERLDLCQQEIESSRVELRSLEKIISQLPLKRELFGFKSYLSKYQMSSFSNKEDRCIGCCEANKLVISELRIKLAIKEAEIQKLHANLTANQLSQSLITCNDSQESSKLSSLETEPVKLGGHQVESVKDQNQHTMNKQYEKERQRLVTGIEELRTKLIQIEAENSDLKVNMAHRTSQFQLIQEELLEKASNSSKLESEMTKKCSQLLTLEKQLEEKIVAYSSIAAKNAELEQELMEKNEKIRSLETNINTEHEKICLAFEKAKKIHLEQHKEMEKQIERLEAQLEKKDQQFKEQEKTMSMLQQDIICKQHHLESLDRLLTESKGEMKKENMKKDEALKALQNQVSEETIKVRQLDSALEICKEELVLHLNQLEGNKEKFEKQLKKKSEEVYCLQKELKIKNHSLQETSEQNVILQHTLQQQQQMLQQETIRNGELEDTQTKLEKQVSKLEQELQKQRESSAEKLRKMEEKCESAAHEADLKRQKVIELTGTARQVKIEMDQYKEELSKMEKEIMHLKRDGENKAMHLSQLDMILDQTKTELEKKTNAVKELEKLQHSTETELTEALQKREVLETELQNAHGELKSTLRQLQELRDVLQKAQLSLEEKYTTIKDLTAELRECKMEIEDKKQELLEMDQALKERNWELKQRAAQVTHLDMTIREHRGEMEQKIIKLEGTLEKSELELKECNKQIESLNDKLQNAKEQLREKEFIMLQNEQEISQLKKEIERTQQRMKEMESVMKEQEQYIATQYKEAIDLGQELRLTREQVQNSHTELAEARHQQVQAQREIERLSSELEDMKQLSKEKDAHGNHLAEELGASKVREAHLEARMQAEIKKLSAEVESLKEAYHMEMISHQENHAKWKISADSQKSSVQQLNEQLEKAKLELEEAQDTVSNLHQQVQDRNEVIEAANEALLTKESELTRLQAKISGHEKAEDIKFLPAPFTSPTEIMPDVQDPKFAKCFHTSFSKCTKLRRSISASDLTFKIHGDEDLSEELLQDLKKMQLEQPSTLEESHKNLTYTQPDSFKPLTYNLEADSSENNDFNTLSGMLRYINKEVRLLKKSSMQTGAGLNQGENV [CCDC18] | 0.237 | 0.155 | -0.388 | -0.856
2 | MEVRKLSISWQFLIVLVLILQILSALDFDPYRVLGVSRTASQADIKKAYKKLAREWHPDKNKDPGAEDKFIQISKAYEILSNEEKRSNYDQYGDAGENQGYQKQQQQREYRFRHFHENFYFDESFFHFPFNSERRDSIDEKYLLHFSHYVNEVVPDSFKKPYLIKITSDWCFSCIHIEPVWKEVIQELEELGVGIGVVHAGYERRLAHHLGAHSTPSILGIINGKISFFHNAVVRENLRQFVESLLPGNLVEKVTNKNYVRFLSGWQQENKPHVLLFDQTPIVPLLYKLTAFAYKDYLSFGYVYVGLRGTEEMTRRYNINIYAPTLLVFKEHINRPADVIQARGMKKQIIDDFITRNKYLLAARLTSQKLFHELCPVKRSHRQRKYCVVLLTAETTKLSKPFEAFLSFALANTQDTVRFVHVYSNRQQEFADTLLPDSEAFQGKSAVSILERRNTAGRVVYKTLEDPWIGSESDKFILLGYLDQLRKDPALLSSEAVLPDLTDELAPVFLLRWFYSASDYISDCWDSIFHNNWREMMPLLSLIFSALFILFGTVIVQAFSDSNDERESSPPEKEEAQEKTGKTEPSFTKENSSKIPKKGFVEVTELTDVTYTSNLVRLRPGHMNVVLILSNSTKTSLLQKFALEVYTFTGSSCLHFSFLSLDKHREWLEYLLEFAQDAAPIPNQYDKHFMERDYTGYVLALNGHKKYFCLFKPQKTVEEEEAIGSCSDVDSSLYLGESRGKPSCGLGSRPIKGKLSKLSLWMERLLEGSLQRFYIPSWPELD [DNAJC16] | 1.48e-05 | -0.398 | -0.236 | -0.485
3 | MGFGSDLKNSHEAVLKLQDWELRLLETVKKFMALRIKSDKEYASTLQNLCNQVDKESTVQMNYVSNVSKSWLLMIQQTEQLSRIMKTHAEDLNSGPLHRLTMMIKDKQQVKKSYIGVHQQIEAEMIKVTKTELEKLKCSYRQLIKEMNSAKEKYKEALAKGKETEKAKERYDKATMKLHMLHNQYVLALKGAQLHQNQYYDITLPLLLDSLQKMQEEMIKALKGIFDEYSQITSLVTEEIVNVHKEIQMSVEQIDPSTEYNNFIDVHRTTAAKEQEIEFDTSLLEENENLQANEIMWNNLTAESLQVMLKTLAEELMQTQQMLLNKEEAVLELEKRIEESSETCEKKSDIVLLLSQKQALEELKQSVQQLRCTEAKFSAQKELLEQKVQENDGKEPPPVVNYEEDARSVTSMERKERLSKFESIRHSIAGIIRSPKSALGSSALSDMISISEKPLAEQDWYHGAIPRIEAQELLKKQGDFLVRESHGKPGEYVLSVYSDGQRRHFIIQYVDNMYRFEGTGFSNIPQLIDHHYTTKQVITKKSGVVLLNPIPKDKKWILSHEDVILGELLGKGNFGEVYKGTLKDKTSVAVKTCKEDLPQELKIKFLQEAKILKQYDHPNIVKLIGVCTQRQPVYIIMELVSGGDFLTFLRRKKDELKLKQLVKFSLDAAAGMLYLESKNCIHRDLAARNCLVGENNVLKISDFGMSRQEDGGVYSSSGLKQIPIKWTAPEALNYGRYSSESDVWSFGILLWETFSLGVCPYPGMTNQQAREQVERGYRMSAPQHCPEDISKIMMKCWDYKPENRPKFSELQKELTIIKRKLT [FER] | -0.106 | -0.0779 | -0.138 | -0.342
4 | MGFNLTFHLSYKFRLLLLLTLCLTVVGWATSNYFVGAIQEIPKAKEFMANFHKTLILGKGKTLTNEASTKKVELDNCPSVSPYLRGQSKLIFKPDLTLEEVQAENPKVSRGRYRPQECKALQRVAILVPHRNREKHLMYLLEHLHPFLQRQQLDYGIYVIHQAEGKKFNRAKLLNVGYLEALKEENWDCFIFHDVDLVPENDFNLYKCEEHPKHLVVGRNSTGYRLRYSGYFGGVTALSREQFFKVNGFSNNYWGWGGEDDDLRLRVELQRMKISRPLPEVGKYTMVFHTRDKGNEVNAERMKLLHQVSRVWRTDGLSSCSYKLVSVEHNPLYINITVDFWFGA [B4GALT4] | -0.14 | 0.167 | -0.773 | -0.781
5 | MGKRDNRVAYMNPIAMARSRGPIQSSGPTIQDYLNRPRPTWEEVKEQLEKKKKGSKALAEFEEKMNENWKKELEKHREKLLSGSESSSKKRQRKKKEKKKSGRYSSSSSSSSDSSSSSSDSEDEDKKQGKRRKKKKNRSHKSSESSMSETESDSKDSLKKKKKSKDGTEKEKDIKGLSKKRKMYSEDKPLSSESLSESEYIEEVRAKKKKSSEEREKATEKTKKKKKHKKHSKKKKKKAASSSPDSP [FAM133B] | 0.889 | -1.16 | -5.3 | -3.34
6 | MIPVSLVVVVVGGWTVVYLTDLVLKSSVYFKHSYEDWLENNGLSISPFHIRWQTAVFNRAFYSWGRRKARMLYQWFNFGMVFGVIAMFSSFFLLGKTLMQTLAQMMADSPSSYSSSSSSSSSSSSSSSSSSSSSSSLHNEQVLQVVVPGINLPVNQLTYFFTAVLISGVVHEIGHGIAAIREQVRFNGFGIFLFIIYPGAFVDLFTTHLQLISPVQQLRIFCAGIWHNFVLALLGILALVLLPVILLPFYYTGVGVLITEVAEDSPAIGPRGLFVGDLVTHLQDCPVTNVQDWNECLDTIAYEPQIGYCISASTLQQLSFPVRAYKRLDGSTECCNNHSLTDVCFSYRNNFNKRLHTCLPARKAVEATQVCRTNKDCKKSSSSSFCIIPSLETHTRLIKVKHPPQIDMLYVGHPLHLHYTVSITSFIPRFNFLSIDLPVVVETFVKYLISLSGALAIVNAVPCFALDGQWILNSFLDATLTSVIGDNDVKDLIGFFILLGGSVLLAANVTLGLWMVTAR [MBTPS2] | -0.109 | -0.23 | -0.0953 | -0.633
7 | MKAGATSMWASCCGLLNEVMGTGAVRGQQSAFAGATGPFRFTPNPEFSTYPPAATEGPNIVCKACGLSFSVFRKKHVCCDCKKDFCSVCSVLQENLRRCSTCHLLQETAFQRPQLMRLKVKDLRQYLILRNIPIDTCREKEDLVDLVLCHHGLGSEDDMDTSSLNSSRSQTSSFFTRSFFSNYTAPSATMSSFQGELMDGDQTSRSGVPAQVQSEITSANTEDDDDDDDEDDDDEEENAEDRNPGLSKERVRASLSDLSSLDDVEGMSVRQLKEILARNFVNYSGCCEKWELVEKVNRLYKENEENQKSYGERLQLQDEEDDSLCRICMDAVIDCVLLECGHMVTCTKCGKRMSECPICRQYVVRAVHVFKS [RNF34] | -0.0561 | 0.0303 | 0.687 | 0.834
8 | MKRRNADCSKLRRPLKRNRITEGIYGSTFLYLKFLVVWALVLLADFVLEFRFEYLWPFWLFIRSVYDSFRYQGLAFSVFFVCVAFTSNIICLLFIPIQWLFFAASTYVWVQYVWHTERGVCLPTVSLWILFVYIEAAIRFKDLKNFHVDLCRPFAAHCIGYPVVTLGFGFKSYVSYKMRLRKQKEVQKENEFYMQLLQQALPPEQQMLQKQEKEAEEAAKGLPDMDSSILIHHNGGIPANKKLSTTLPEIEYREKGKEKDKDAKKHNLGINNNNILQPVDSKIQEIEYMENHINSKRLNNDLVGSTENLLKEDSCTASSKNYKNASGVVNSSPRSHSATNGSIPSSSSKNEKKQKCTSKSPSTHKDLMENCIPNNQLSKPDALVRLEQDIKKLKADLQASRQVEQELRSQISSLSSTERGIRSEMGQLRQENELLQNKLHNAVQMKQKDKQNISQLEKKLKAEQEARSFVEKQLMEEKKRKKLEEATAARAVAFAAASRGECTETLRNRIRELEAEGKKLTMDMKVKEDQIRELELKVQELRKYKENEKDTEVLMSALSAMQDKTQHLENSLSAETRIKLDLFSALGDAKRQLEIAQGQILQKDQEIKDLKQKIAEVMAVMPSITYSAATSPLSPVSPHYSSKFVETSPSGLDPNASVYQPLKK [TMEM57] | 0.256 | -0.363 | -1.41 | -2.47
9 | MLKKQSAGLVLWGAILFVAWNALLLLFFWTRPAPGRPPSVSALDGDPASLTREVIRLAQDAEVELERQRGLLQQIGDALSSQRGRVPTAAPPAQPRVPVTPAPAVIPILVIACDRSTVRRCLDKLLHYRPSAELFPIIVSQDCGHEETAQAIASYGSAVTHIRQPDLSSIAVPPDHRKFQGYYKIARHYRWALGQVFRQFRFPAAVVVEDDLEVAPDFFEYFRATYPLLKADPSLWCVSAWNDNGKEQMVDASRPELLYRTDFFPGLGWLLLAELWAELEPKWPKAFWDDWMRRPEQRQGRACIRPEISRTMTFGRKGVSHGQFFDQHLKFIKLNQQFVHFTQLDLSYLQREAYDRDFLARVYGAPQLQVEKVRTNDRKELGEVRVQYTGRDSFKAFAKALGVMDDLKSGVPRAGYRGIVTFQFRGRRVHLAPPLTWEGYDPSWN [MGAT1] | 0.0597 | -0.0579 | 0.289 | 0.0296
10 | MNPIVVVHGGGAGPISKDRKERVHQGMVRAATVGYGILREGGSAVDAVEGAVVALEDDPEFNAGCGSVLNTNGEVEMDASIMDGKDLSAGAVSAVQCIANPIKLARLVMEKTPHCFLTDQGAAQFAAAMGVPEIPGEKLVTERNKKRLEKEKHEKGAQKTDCQKNLGTVGAVALDCKGNVAYATSTGGIVNKMVGRVGDSPCLGAGGYADNDIGAVSTTGHGESILKVNLARLTLFHIEQGKTVEEAADLSLGYMKSRVKGLGGLIVVSKTGDWVAKWTSTSMPWAAAKDGKLHFGIDPDDTTITDLP [ASRGL1] | -0.207 | 0.282 | -1.89 | -2.25
11 | MPDZ | 0.0126 | -0.0106 | 0.637 | 0.641
